T1: DFNB31_2, Q9P202
T1 sequence (Q9P202 274-371, limits assumed, looked up): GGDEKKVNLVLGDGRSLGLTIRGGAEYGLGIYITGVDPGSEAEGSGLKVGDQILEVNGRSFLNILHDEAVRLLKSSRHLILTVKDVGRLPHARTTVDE

T2: DFNB31_3, Q9P202
T2 sequence (Q9P202 811-907, limits assumed, looked up): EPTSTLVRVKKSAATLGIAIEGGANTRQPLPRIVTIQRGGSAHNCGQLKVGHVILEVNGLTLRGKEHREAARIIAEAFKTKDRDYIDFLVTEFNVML

T3: DLG3_3, Q92796
T3 sequence (Q92796 374-475, limits assumed, looked up): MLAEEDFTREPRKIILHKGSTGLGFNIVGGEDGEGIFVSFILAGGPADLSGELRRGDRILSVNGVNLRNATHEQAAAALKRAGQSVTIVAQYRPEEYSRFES

T4: DVL3, Q92997
T4 sequence (Q92997 244-331, limits assumed, looked up): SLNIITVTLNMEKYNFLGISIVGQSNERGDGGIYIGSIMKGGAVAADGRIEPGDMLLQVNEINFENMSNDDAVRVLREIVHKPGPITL

T5: GRIP1_5, Q9Y3R0
T5 sequence (Q9Y3R0 568-668, limits assumed, looked up): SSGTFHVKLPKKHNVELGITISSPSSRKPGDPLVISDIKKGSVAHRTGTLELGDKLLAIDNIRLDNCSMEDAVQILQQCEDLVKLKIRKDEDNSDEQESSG

T6: GRIP1_7, Q9Y3R0
T6 sequence (Q9Y3R0 999-1096, limits assumed, looked up): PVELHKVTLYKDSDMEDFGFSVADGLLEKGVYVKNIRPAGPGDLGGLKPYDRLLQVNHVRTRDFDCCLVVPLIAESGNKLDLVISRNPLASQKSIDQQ

T7: LIN7C, Q9NUP9
T7 sequence (Q9NUP9 88-185, limits assumed, looked up): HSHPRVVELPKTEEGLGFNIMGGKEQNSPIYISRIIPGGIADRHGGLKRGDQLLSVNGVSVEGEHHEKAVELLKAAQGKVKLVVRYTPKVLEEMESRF

T8: LNX2_2, Q8N448
T8 sequence (Q8N448 334-432, limits assumed, looked up): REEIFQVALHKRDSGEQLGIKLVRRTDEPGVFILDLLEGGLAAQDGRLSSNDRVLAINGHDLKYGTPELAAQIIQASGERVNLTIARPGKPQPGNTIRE

T9: LNX2_3, Q8N448
T9 sequence (Q8N448 463-564, limits assumed, looked up): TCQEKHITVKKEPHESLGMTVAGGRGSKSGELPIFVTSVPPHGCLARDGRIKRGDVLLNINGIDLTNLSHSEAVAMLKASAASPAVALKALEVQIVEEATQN

T10: MPP2, Q14168
T10 sequence (Q14168 180-250, limits assumed, looked up): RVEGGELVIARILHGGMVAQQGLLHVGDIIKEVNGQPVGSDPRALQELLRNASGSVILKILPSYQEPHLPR

T11: NHERF3_1, Q5T2W1
T11 sequence (Q5T2W1 4-100, limits assumed, looked up): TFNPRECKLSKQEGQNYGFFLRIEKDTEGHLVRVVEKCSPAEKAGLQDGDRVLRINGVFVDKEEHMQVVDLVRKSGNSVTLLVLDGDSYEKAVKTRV

T12: PTPN13_1, Q12923
T12 sequence (Q12923 1088-1188, limits assumed, looked up): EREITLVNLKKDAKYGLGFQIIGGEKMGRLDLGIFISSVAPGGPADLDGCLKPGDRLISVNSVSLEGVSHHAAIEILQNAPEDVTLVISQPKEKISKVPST


target: T1, DFNB31_2, Q9P202; experiment: holdup assay; design: key: below the threshold = too weak to quantify, mostly under pKd 3.1 to 4; settings: plain residues with an end cap or a label only (N-terminal biotin on a linker: ado-ado)

Binder | pKd
DPAESMESLV [PTPRG, P23470] | below the threshold

target: T2, DFNB31_3, Q9P202; experiment: holdup assay; design: key: below the threshold = too weak to quantify, mostly under pKd 3.1 to 4; settings: plain residues with an end cap or a label only (N-terminal biotin on a linker: ado-ado)

Binder | pKd
DPAESMESLV [PTPRG, P23470] | 3.88

target: DLG1_1, Q12959; experiment: holdup assay; design: key: below the threshold = too weak to quantify, mostly under pKd 3.1 to 4; settings: plain residues with an end cap or a label only (N-terminal biotin on a linker: ado-ado)

Binder | pKd
DPAESMESLV [PTPRG, P23470] | 4.45

target: T3, DLG3_3, Q92796; experiment: holdup assay; design: key: below the threshold = too weak to quantify, mostly under pKd 3.1 to 4; settings: plain residues with an end cap or a label only (N-terminal biotin on a linker: ado-ado)

Binder | pKd
DPAESMESLV [PTPRG, P23470] | below the threshold

target: T4, DVL3, Q92997; experiment: holdup assay; design: key: below the threshold = too weak to quantify, mostly under pKd 3.1 to 4; settings: plain residues with an end cap or a label only (N-terminal biotin on a linker: ado-ado)

Binder | pKd
DPAESMESLV [PTPRG, P23470] | below the threshold

target: FRMPD3, Q5JV73; experiment: holdup assay; design: key: below the threshold = too weak to quantify, mostly under pKd 3.1 to 4; settings: plain residues with an end cap or a label only (N-terminal biotin on a linker: ado-ado)
Sequence (Q5JV73 12-100): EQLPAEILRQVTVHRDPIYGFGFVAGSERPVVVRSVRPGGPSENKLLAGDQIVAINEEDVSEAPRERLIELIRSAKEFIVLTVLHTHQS

Binder | pKd
DPAESMESLV [PTPRG, P23470] | below the threshold

target: T5, GRIP1_5, Q9Y3R0; experiment: holdup assay; design: key: below the threshold = too weak to quantify, mostly under pKd 3.1 to 4; settings: plain residues with an end cap or a label only (N-terminal biotin on a linker: ado-ado)

Binder | pKd
DPAESMESLV [PTPRG, P23470] | below the threshold

target: T6, GRIP1_7, Q9Y3R0; experiment: holdup assay; design: key: below the threshold = too weak to quantify, mostly under pKd 3.1 to 4; settings: plain residues with an end cap or a label only (N-terminal biotin on a linker: ado-ado)

Binder | pKd
DPAESMESLV [PTPRG, P23470] | below the threshold

target: GRIP2_6, Q9C0E4; experiment: holdup assay; design: key: below the threshold = too weak to quantify, mostly under pKd 3.1 to 4; settings: plain residues with an end cap or a label only (N-terminal biotin on a linker: ado-ado)
Sequence (Q9C0E4 648-740): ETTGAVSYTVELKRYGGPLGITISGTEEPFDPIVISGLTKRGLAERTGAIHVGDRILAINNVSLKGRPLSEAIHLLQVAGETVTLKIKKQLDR

Binder | pKd
DPAESMESLV [PTPRG, P23470] | below the threshold

target: IL16_3, Q14005; experiment: holdup assay; design: key: below the threshold = too weak to quantify, mostly under pKd 3.1 to 4; settings: plain residues with an end cap or a label only (N-terminal biotin on a linker: ado-ado)
Sequence (Q14005 1107-1207): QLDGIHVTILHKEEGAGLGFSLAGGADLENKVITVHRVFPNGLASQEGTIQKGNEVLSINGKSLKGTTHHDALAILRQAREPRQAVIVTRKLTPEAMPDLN

Binder | pKd
DPAESMESLV [PTPRG, P23470] | below the threshold

target: Inadl_4, Q8NI35; experiment: holdup assay; design: key: below the threshold = too weak to quantify, mostly under pKd 3.1 to 4; settings: plain residues with an end cap or a label only (N-terminal biotin on a linker: ado-ado)
Sequence (Q8NI35 547-651): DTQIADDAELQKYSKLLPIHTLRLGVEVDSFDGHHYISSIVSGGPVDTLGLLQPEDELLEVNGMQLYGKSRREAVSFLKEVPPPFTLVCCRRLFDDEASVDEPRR

Binder | pKd
DPAESMESLV [PTPRG, P23470] | below the threshold

target: LIMK2, P53671; experiment: holdup assay; design: key: below the threshold = too weak to quantify, mostly under pKd 3.1 to 4; settings: plain residues with an end cap or a label only (N-terminal biotin on a linker: ado-ado)
Sequence (P53671 143-248): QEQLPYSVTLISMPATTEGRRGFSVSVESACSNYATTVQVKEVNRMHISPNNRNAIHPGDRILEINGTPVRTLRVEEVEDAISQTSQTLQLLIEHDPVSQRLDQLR

Binder | pKd
DPAESMESLV [PTPRG, P23470] | below the threshold

target: T7, LIN7C, Q9NUP9; experiment: holdup assay; design: key: below the threshold = too weak to quantify, mostly under pKd 3.1 to 4; settings: plain residues with an end cap or a label only (N-terminal biotin on a linker: ado-ado)

Binder | pKd
DPAESMESLV [PTPRG, P23470] | 3.94

target: LNX1_1, Q8TBB1; experiment: holdup assay; design: key: below the threshold = too weak to quantify, mostly under pKd 3.1 to 4; settings: plain residues with an end cap or a label only (N-terminal biotin on a linker: ado-ado)
Sequence (Q8TBB1 261-371): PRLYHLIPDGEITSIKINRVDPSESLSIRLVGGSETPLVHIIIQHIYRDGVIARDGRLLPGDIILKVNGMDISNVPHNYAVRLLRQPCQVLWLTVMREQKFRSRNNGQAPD

Binder | pKd
DPAESMESLV [PTPRG, P23470] | 4.06

target: T8, LNX2_2, Q8N448; experiment: holdup assay; design: key: below the threshold = too weak to quantify, mostly under pKd 3.1 to 4; settings: plain residues with an end cap or a label only (N-terminal biotin on a linker: ado-ado)

Binder | pKd
DPAESMESLV [PTPRG, P23470] | 4.3

target: T9, LNX2_3, Q8N448; experiment: holdup assay; design: key: below the threshold = too weak to quantify, mostly under pKd 3.1 to 4; settings: plain residues with an end cap or a label only (N-terminal biotin on a linker: ado-ado)

Binder | pKd
DPAESMESLV [PTPRG, P23470] | below the threshold

target: MAGI1_2, Q96QZ7; experiment: holdup assay; design: key: below the threshold = too weak to quantify, mostly under pKd 3.1 to 4; settings: plain residues with an end cap or a label only (N-terminal biotin on a linker: ado-ado)
Sequence (Q96QZ7 456-580): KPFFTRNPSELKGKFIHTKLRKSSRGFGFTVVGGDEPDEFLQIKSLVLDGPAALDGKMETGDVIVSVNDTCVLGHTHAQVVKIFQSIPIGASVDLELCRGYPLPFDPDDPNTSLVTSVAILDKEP

Binder | pKd
DPAESMESLV [PTPRG, P23470] | 3.55

target: MAGI2_3, Q86UL8; experiment: holdup assay; design: key: below the threshold = too weak to quantify, mostly under pKd 3.1 to 4; settings: plain residues with an end cap or a label only (N-terminal biotin on a linker: ado-ado)
Sequence (Q86UL8 600-682): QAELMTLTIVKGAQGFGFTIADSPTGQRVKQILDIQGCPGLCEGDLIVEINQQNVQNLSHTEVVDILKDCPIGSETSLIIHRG

Binder | pKd
DPAESMESLV [PTPRG, P23470] | 4.54

target: T10, MPP2, Q14168; experiment: holdup assay; design: key: below the threshold = too weak to quantify, mostly under pKd 3.1 to 4; settings: plain residues with an end cap or a label only (N-terminal biotin on a linker: ado-ado)

Binder | pKd
DPAESMESLV [PTPRG, P23470] | below the threshold

target: T11, NHERF3_1, Q5T2W1; experiment: holdup assay; design: key: below the threshold = too weak to quantify, mostly under pKd 3.1 to 4; settings: plain residues with an end cap or a label only (N-terminal biotin on a linker: ado-ado)

Binder | pKd
DPAESMESLV [PTPRG, P23470] | 4.7

target: NHERF4_1, Q86UT5-2; experiment: holdup assay; design: key: below the threshold = too weak to quantify, mostly under pKd 3.1 to 4; settings: plain residues with an end cap or a label only (N-terminal biotin on a linker: ado-ado)
Sequence (Q86UT5 other isoform, or with tags, fused parts or gaps): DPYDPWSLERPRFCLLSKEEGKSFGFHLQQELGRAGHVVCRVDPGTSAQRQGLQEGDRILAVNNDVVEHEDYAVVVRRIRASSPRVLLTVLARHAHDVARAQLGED

Binder | pKd
DPAESMESLV [PTPRG, P23470] | below the threshold

target: T12, PTPN13_1, Q12923; experiment: holdup assay; design: key: below the threshold = too weak to quantify, mostly under pKd 3.1 to 4; settings: plain residues with an end cap or a label only (N-terminal biotin on a linker: ado-ado)

Binder | pKd
DPAESMESLV [PTPRG, P23470] | below the threshold

target: PTPN3, P26045; experiment: holdup assay; design: key: below the threshold = too weak to quantify, mostly under pKd 3.1 to 4; settings: plain residues with an end cap or a label only (N-terminal biotin on a linker: ado-ado)
Sequence (P26045 505-587): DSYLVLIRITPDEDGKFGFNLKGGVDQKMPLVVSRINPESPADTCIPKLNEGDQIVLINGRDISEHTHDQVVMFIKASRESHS

Binder | pKd
DPAESMESLV [PTPRG, P23470] | 4.61

target: SCRIB_2, Q14160; experiment: holdup assay; design: key: below the threshold = too weak to quantify, mostly under pKd 3.1 to 4; settings: plain residues with an end cap or a label only (N-terminal biotin on a linker: ado-ado)
Sequence (Q14160 857-960): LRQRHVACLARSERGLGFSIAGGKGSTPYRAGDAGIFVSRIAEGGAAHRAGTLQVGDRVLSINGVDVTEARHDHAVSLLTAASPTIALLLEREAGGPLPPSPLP

Binder | pKd
DPAESMESLV [PTPRG, P23470] | 3.68

target: SCRIB_3, Q14160; experiment: holdup assay; design: key: below the threshold = too weak to quantify, mostly under pKd 3.1 to 4; settings: plain residues with an end cap or a label only (N-terminal biotin on a linker: ado-ado)
Sequence (Q14160 999-1103): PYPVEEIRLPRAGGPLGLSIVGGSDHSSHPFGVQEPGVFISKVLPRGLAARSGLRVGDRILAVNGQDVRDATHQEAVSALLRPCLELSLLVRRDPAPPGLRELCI

Binder | pKd
DPAESMESLV [PTPRG, P23470] | 3.92

target: TJP2_1, Q9UDY2; experiment: holdup assay; design: key: below the threshold = too weak to quantify, mostly under pKd 3.1 to 4; settings: plain residues with an end cap or a label only (N-terminal biotin on a linker: ado-ado)
Sequence (Q9UDY2 24-128): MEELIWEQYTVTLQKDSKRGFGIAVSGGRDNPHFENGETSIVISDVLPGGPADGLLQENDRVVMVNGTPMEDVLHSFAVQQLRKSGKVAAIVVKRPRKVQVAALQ

Binder | pKd
DPAESMESLV [PTPRG, P23470] | below the threshold
